In the supplement of paper PMC7125110:
± gives the standard error. For some assays here: Fewer inactive variants are shown than the library holds.

B1: glmS ribozyme (parent)
chain: AUAAAAGCGCCAGAACUACAGAAAUGUAGUUGACGAGGAGGAGGUUUAUCGAAUUUUCGGCGGAUGCCUCCAAA

What was measured:
Conditions in all cases: with glucosamine-6-phosphate
glucosamine-6-phosphate [1] = variants of: B1; assay: kcat; higher = faster cleavage; RNA array
Summary of the method: (§1)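 On sequenced MiSeq chips, barcoded ribozyme variants were made in situ by E. coli RNA polymerase and followed at 37 °C through a hybridised Cy3 probe. Glucosamine-6-phosphate was flowed in at 40 μM to 10 mM in HEPES/KCl/Mg(OAc)2 buffer. Exponential fits to normalised per-tile medians gave kobs, and weighted Michaelis–Menten fits gave kcat and KM.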

glucosamine-6-phosphate [2] = variants of: B1; assay: KM; higher = weaker cofactor use; RNA array
Summary of the method: as §1

glucosamine-6-phosphate [3] = variants of: B1; assay: self-cleavage kobs at 160 uM GlcN6P; higher = faster cleavage; RNA array
Summary of the method: as §1

glucosamine-6-phosphate [4] = variants of: B1; assay: self-cleavage kobs at 640 uM GlcN6P; higher = faster cleavage; RNA array
Summary of the method: as §1

glucosamine-6-phosphate [5] = variants of: B1; assay: self-cleavage kobs at 2500 uM GlcN6P; higher = faster cleavage; RNA array
Summary of the method: as §1

glucosamine-6-phosphate [6] = variants of: B1; assay: self-cleavage kobs at 10000 uM GlcN6P; higher = faster cleavage; RNA array
Summary of the method: as §1

glucosamine-6-phosphate [7] = variants of: B1; assay: self-cleavage kobs at 40 uM GlcN6P; higher = faster cleavage; RNA array
Summary of the method: as §1

| Variant | kcat (glucosamine-6-phosphate [1]) | KM (glucosamine-6-phosphate [2]) | self-cleavage kobs at 160 uM GlcN6P (glucosamine-6-phosphate [3]) | self-cleavage kobs at 640 uM GlcN6P (glucosamine-6-phosphate [4]) | self-cleavage kobs at 2500 uM GlcN6P (glucosamine-6-phosphate [5]) | self-cleavage kobs at 10000 uM GlcN6P (glucosamine-6-phosphate [6]) | self-cleavage kobs at 40 uM GlcN6P (glucosamine-6-phosphate [7]) |
| --- | --- | --- | --- | --- | --- | --- | --- |
| U31C G41C | 4.88e-05 ± 2e-05 s⁻¹ | – | – | – | – | – | – |
| U31C U56C | 0.00169 ± 0.00055 s⁻¹ | 2910 ± 1200 µM | 9.03e-05 ± 1.1e-05 s⁻¹ | 0.000331 ± 5.8e-05 s⁻¹ | 0.000644 ± 0.00011 s⁻¹ | 0.00171 ± 0.00034 s⁻¹ | – |
| U31G A36C C70G | 7.04e-05 ± 3.2e-05 s⁻¹ | – | – | 0.000105 ± 4.3e-05 s⁻¹ | – | – | – |
| U31G A42U | 5.2e-05 ± 1.3e-05 s⁻¹ | – | – | – | 2.29e-05 ± 1.1e-05 s⁻¹ | 4.27e-05 ± 1.1e-05 s⁻¹ | – |
| G32C C50U | < 1e-05 s⁻¹ | – | – | < 1e-05 s⁻¹ | – | < 1e-05 s⁻¹ | – |
| U31G U69G | 5.43e-05 ± 8.8e-06 s⁻¹ | – | 9.12e-05 ± 1.7e-05 s⁻¹ | 5.73e-05 ± 1.2e-05 s⁻¹ | 5.24e-05 ± 7.9e-06 s⁻¹ | 4.43e-05 ± 1e-05 s⁻¹ | – |
| U31G A36C | < 1e-05 s⁻¹ | – | < 1e-05 s⁻¹ | – | – | < 1e-05 s⁻¹ | – |
| U31G A36U | < 1e-05 s⁻¹ | – | – | < 1e-05 s⁻¹ | – | < 1e-05 s⁻¹ | – |
| U31G C68U | 0.00134 ± 0.00023 s⁻¹ | 2020 ± 590 µM | 0.000119 ± 2.9e-05 s⁻¹ | 0.000312 ± 4.3e-05 s⁻¹ | 0.000606 ± 0.0001 s⁻¹ | 0.00126 ± 0.00015 s⁻¹ | 3.14e-05 ± 7.7e-06 s⁻¹ |
| G32A C58A | 0.00126 ± 0.00024 s⁻¹ | 3330 ± 920 µM | 7.42e-05 ± 1.4e-05 s⁻¹ | 0.000201 ± 2.2e-05 s⁻¹ | 0.000498 ± 5.6e-05 s⁻¹ | 0.00106 ± 0.00016 s⁻¹ | – |
| U31A U69A | 0.000105 ± 2.5e-05 s⁻¹ | – | 7.05e-05 ± 1.9e-05 s⁻¹ | 7.66e-05 ± 2.3e-05 s⁻¹ | 0.000163 ± 2.9e-05 s⁻¹ | 7.86e-05 ± 2.1e-05 s⁻¹ | – |
| A33U A39U | 5.86e-05 ± 3e-06 s⁻¹ | 4820 ± 620 µM | < 1e-05 s⁻¹ | – | 2.03e-05 ± 6.2e-06 s⁻¹ | 3.95e-05 ± 5.5e-06 s⁻¹ | – |
| A33U A39G | 0.00016 ± 3.8e-05 s⁻¹ | – | < 1e-05 s⁻¹ | – | 6.65e-05 ± 2.8e-05 s⁻¹ | 0.000108 ± 1.3e-05 s⁻¹ | – |
| A33C U55A | 0.000974 ± 0.00015 s⁻¹ | 3160 ± 940 µM | 3.03e-05 ± 1.4e-05 s⁻¹ | 0.000183 ± 3.5e-05 s⁻¹ | 0.000519 ± 9.2e-05 s⁻¹ | 0.000717 ± 7.8e-05 s⁻¹ | – |
| A33C U55G | 0.000433 ± 0.00012 s⁻¹ | 2970 ± 1400 µM | – | 9.32e-05 ± 1.6e-05 s⁻¹ | 0.000163 ± 2.8e-05 s⁻¹ | 0.000384 ± 6.3e-05 s⁻¹ | – |
| U31G U46C | 0.000896 ± 0.00013 s⁻¹ | 1720 ± 420 µM | 7.33e-05 ± 1.5e-05 s⁻¹ | 0.00021 ± 6.8e-05 s⁻¹ | 0.000592 ± 0.00011 s⁻¹ | 0.000731 ± 0.00014 s⁻¹ | 3.68e-05 ± 1.6e-05 s⁻¹ |

| Variant | kcat (glucosamine-6-phosphate [1]) | KM (glucosamine-6-phosphate [2]) | self-cleavage kobs at 160 uM GlcN6P (glucosamine-6-phosphate [3]) | self-cleavage kobs at 640 uM GlcN6P (glucosamine-6-phosphate [4]) | self-cleavage kobs at 2500 uM GlcN6P (glucosamine-6-phosphate [5]) | self-cleavage kobs at 10000 uM GlcN6P (glucosamine-6-phosphate [6]) | self-cleavage kobs at 40 uM GlcN6P (glucosamine-6-phosphate [7]) |
| --- | --- | --- | --- | --- | --- | --- | --- |
| U31A U55G C67G | 0.000655 ± 6.8e-05 s⁻¹ | 428 ± 100 µM | 0.000166 ± 5.4e-05 s⁻¹ | 0.000467 ± 0.00012 s⁻¹ | 0.000505 ± 9.5e-05 s⁻¹ | 0.000735 ± 0.00019 s⁻¹ | 5.68e-05 ± 1.9e-05 s⁻¹ |
| U31C A33C | < 1e-05 s⁻¹ | 5010 ± 1800 µM | < 1e-05 s⁻¹ | – | – | – | < 1e-05 s⁻¹ |
| U31G G66U | 0.000571 ± 6e-05 s⁻¹ | 2410 ± 400 µM | 2.77e-05 ± 1e-05 s⁻¹ | 0.000126 ± 1.5e-05 s⁻¹ | 0.00029 ± 4.4e-05 s⁻¹ | 0.000452 ± 8e-05 s⁻¹ | – |
| G32A U54A C67G | 0.000168 ± 2.5e-05 s⁻¹ | 216 ± 100 µM | 8.09e-05 ± 1.6e-05 s⁻¹ | – | 0.000137 ± 2.7e-05 s⁻¹ | 0.00018 ± 3.3e-05 s⁻¹ | – |
| A33C A53U | 0.000206 ± 3.2e-05 s⁻¹ | – | – | 7.53e-05 ± 1.6e-05 s⁻¹ | 0.000246 ± 5.8e-05 s⁻¹ | 0.000182 ± 1.9e-05 s⁻¹ | – |
| G32A G40A | 0.000781 ± 2.4e-05 s⁻¹ | 2220 ± 130 µM | 5.38e-05 ± 1.8e-05 s⁻¹ | 0.000175 ± 3.4e-05 s⁻¹ | 0.000414 ± 6.4e-05 s⁻¹ | 0.000639 ± 8.9e-05 s⁻¹ | – |
| G32A G40U | 0.00051 ± 0.0001 s⁻¹ | 3900 ± 1200 µM | – | 7.8e-05 ± 9.2e-06 s⁻¹ | 0.000169 ± 2.5e-05 s⁻¹ | 0.000401 ± 5.6e-05 s⁻¹ | – |
| A33G C58G | < 1e-05 s⁻¹ | – | – | – | – | < 1e-05 s⁻¹ | – |
| U31C A48U | 6.21e-05 ± 6.5e-06 s⁻¹ | 2780 ± 1100 µM | < 1e-05 s⁻¹ | – | – | 4.85e-05 ± 9.7e-06 s⁻¹ | < 1e-05 s⁻¹ |
| U31G C67G | 0.000557 ± 2.6e-05 s⁻¹ | 1760 ± 150 µM | 4.63e-05 ± 8.1e-06 s⁻¹ | 0.00015 ± 1.7e-05 s⁻¹ | 0.000303 ± 5.8e-05 s⁻¹ | 0.00048 ± 4.6e-05 s⁻¹ | – |
| G32U G41U | 0.000152 ± 3.7e-06 s⁻¹ | 1640 ± 170 µM | – | 4.19e-05 ± 1.5e-05 s⁻¹ | 9.36e-05 ± 1.9e-05 s⁻¹ | 0.00013 ± 1e-05 s⁻¹ | – |
| A33G A64G | < 1e-05 s⁻¹ | 484 ± 28 µM | – | – | – | < 1e-05 s⁻¹ | < 1e-05 s⁻¹ |
| A33C G59U | < 1e-05 s⁻¹ | – | < 1e-05 s⁻¹ | – | – | < 1e-05 s⁻¹ | – |
| G32A C61U | < 1e-05 s⁻¹ | – | < 1e-05 s⁻¹ | < 1e-05 s⁻¹ | – | – | – |
| G32U A39U | 0.000723 ± 0.00022 s⁻¹ | 8400 ± 3500 µM | 3.38e-05 ± 1e-05 s⁻¹ | 5.81e-05 ± 5.6e-06 s⁻¹ | 0.000148 ± 1.2e-05 s⁻¹ | 0.000411 ± 3.1e-05 s⁻¹ | – |
| G32A U54G | 0.00257 ± 0.00027 s⁻¹ | 2600 ± 410 µM | 0.000162 ± 2.6e-05 s⁻¹ | 0.000536 ± 5.3e-05 s⁻¹ | 0.00121 ± 0.00012 s⁻¹ | 0.00207 ± 0.00024 s⁻¹ | 3.07e-05 ± 7.9e-06 s⁻¹ |
